Where two headings read alike, the source gives them in different places.
What was measured:
[1] = target: Hemagglutinin of H4N4 A/Bufflehead (influenza A virus); assay: cell-based or functional assay
[2] = target: Hemagglutinin of H3N2 A/Wisconsin/67/2005 (influenza A virus); assay: cell-based or functional assay
[3] = target: Hemagglutinin of H3N2 A/Perth/16/2009 (influenza A virus); assay: cell-based or functional assay
[4] = target: Hemagglutinin of H3N2 A/Hong Kong/8/68 (influenza A virus); assay: cell-based or functional assay
[5] = target: Hemagglutinin of H7N7 A/Netherlands/219/03 (influenza A virus); assay: cell-based or functional assay
[6] = target: Hemagglutinin of H3N2 A/New York/55/2004 (influenza A virus); assay: cell-based or functional assay
[7] = target: Hemagglutinin of H1N1 A/CA/07/09 (influenza A virus); assay: cell-based or functional assay
[8] = target: Hemagglutinin of H5N1 A/VN/1204 (influenza A virus); assay: cell-based or functional assay
[9] = target: Hemagglutinin of H3 A/SW/MN/02719 (influenza A virus); assay: cell-based or functional assay
[10] = target: Hemagglutinin of H10N7 A/Northern Shoveler (influenza A virus); assay: cell-based or functional assay
[11] = target: Hemagglutinin of H4N4 A/Bufflehead (influenza A virus); assay: cell-based or functional assay; remark: listed apart in the source
[12] = target: Hemagglutinin of H3 A/Udorn/307/1976 (influenza A virus); assay: cell-based or functional assay
[13] = target: Hemagglutinin of H7 A/Sanderling/A106-125 (influenza A virus); assay: cell-based or functional assay
[14] = target: Hemagglutinin of H3N2 A/Wisconsin/67/2005 (influenza A virus); assay: cell-based or functional assay; remark: listed apart in the source
[15] = target: Hemagglutinin of H3N2 A/Perth/16/2009 (influenza A virus); assay: cell-based or functional assay; remark: listed apart in the source
[16] = target: Hemagglutinin of H3 A/Phillipines/2/82 x-79 (influenza A virus); assay: cell-based or functional assay
[17] = target: Hemagglutinin of H3N2 A/Hong Kong/8/68 (influenza A virus); assay: cell-based or functional assay; remark: listed apart in the source
[18] = target: Hemagglutinin of H7N7 A/Netherlands/219/03 (influenza A virus); assay: cell-based or functional assay; remark: listed apart in the source
[19] = target: Hemagglutinin of H7 A/Redknot/NJ/1523470/06 (influenza A virus); assay: cell-based or functional assay
[20] = target: Hemagglutinin of H3N2 A/New York/55/2004 (influenza A virus); assay: cell-based or functional assay; remark: listed apart in the source
[21] = target: Hemagglutinin of H7 A/Ruddy Turnstone/A106-892 (influenza A virus); assay: cell-based or functional assay
[22] = target: Hemagglutinin of H7N3 A/Canada/rv444/04 (influenza A virus); assay: cell-based or functional assay
[23] = target: Hemagglutinin of H3N2 A/Perth/16/2009 (influenza A virus); assay: affinity, method not named in Table 3
[24] = target: Hemagglutinin of H3N2 A/Hong Kong/8/68 (influenza A virus); assay: affinity, method not named in Table 3
[25] = target: Hemagglutinin of H7N7 A/Netherlands/219/03 (influenza A virus); assay: affinity, method not named in Table 3
[26] = target: Hemagglutinin of H3N2 A/New York/55/2004 (influenza A virus); assay: affinity, method not named in Table 3
[27] = target: Hemagglutinin of H7N3 A/Canada/rv444/04 (influenza A virus); assay: affinity, method not named in Table 3
[28] = target: Hemagglutinin of H3N2 A/Perth/16/2009 (influenza A virus); assay: FortéBio
[29] = target: Hemagglutinin of H3N2 A/Hong Kong/8/68 (influenza A virus); assay: FortéBio
[30] = target: Hemagglutinin of H7N7 A/Netherlands/219/03 (influenza A virus); assay: FortéBio
[31] = target: Influenza A hemagglutinin of clade H1 (strain not stated) (influenza A virus); assay: FortéBio biolayer interferometry
[32] = target: Influenza A hemagglutinin of clade H5 (strain not stated) (influenza A virus); assay: FortéBio biolayer interferometry
[33] = target: Influenza A hemagglutinin of clade H3 (strain not stated) (influenza A virus); assay: FortéBio biolayer interferometry
[34] = target: Hemagglutinin of H9N2 Mallard/MN/98 (influenza A virus); assay: cell-based or functional assay
[35] = target: Hemagglutinin of H1N1 A/CA/07/09 (influenza A virus); assay: cell-based or functional assay; remark: listed apart in the source
[36] = target: Hemagglutinin of H2N2 A/Mallard/MN/2008 (influenza A virus); assay: cell-based or functional assay
[37] = target: Hemagglutinin of H5N1 A/VN/1204 (influenza A virus); assay: cell-based or functional assay; remark: listed apart in the source
[38] = target: Hemagglutinin of H1N1 A/CA/07/09 (influenza A virus); assay: affinity, method not named in Table 3
[39] = target: Hemagglutinin of H5N1 A/VN/1204 (influenza A virus); assay: affinity, method not named in Table 3
[40] = target: Hemagglutinin of H5 Vietnam/1203/2004 (influenza A virus); assay: FortéBio
[41] = target: Hemagglutinin of H1N1 A/CA/07/09 (influenza A virus); assay: FortéBio
[42] = target: Influenza A hemagglutinin of clade H7 (strain not stated) (influenza A virus); assay: FortéBio biolayer interferometry
[43] = target: Influenza A hemagglutinin of clade H9 (strain not stated) (influenza A virus); assay: FortéBio biolayer interferometry

“CR8020 (mAb cloned from Crucell patents) (antibody)” showed an EC50 for in vitro neutralization [1] greater than 40 µg/mL, an EC50 for in vitro neutralization [2] of 3.5 µg/mL and an EC50 for in vitro neutralization [3] of 2 µg/mL. It also gave an EC50 for in vitro neutralization [4] of 7.6 µg/mL, an EC50 for in vitro neutralization [5] of 13.1 µg/mL and an EC50 for in vitro neutralization [6] of 10 µg/mL.

With “CR6261 (mAb cloned from Crucell patents) (antibody)” the EC50 for in vitro neutralization [7] was 4 µg/mL and the EC50 for in vitro neutralization [8] was 3.7 µg/mL.

B1: MAB579 (antibody, V domains shown)
VH: QVQLVQSGAEVKKPGASVKVSCKTSGYTFTAYTIHWVRQAPGQRLEWMGWINAGNGHTKYSQRFKGRVTITRDTSARTTYMELRSLTSEDTALYFCARGPETYYYDKTNWLNSHPDEYFQHWGHGTQVTVSS
VL: DIQMTQSPSTLSASVGDRVTITCRASQTINNYLAWYQQKPGKAPKLLIYKASSLESGVPSRFSGSGSGTEFTLTISSLQPDDFATYYCQEYNNDSPLTFGGGTKVEIK
Molecule B1 has an IC50, MDCK monolayer microneutralization assay [9] of 3.9 µg/mL, an EC50 for in vitro neutralization [10] of 0.8 µg/mL and an IC50, MDCK monolayer microneutralization assay [10] of 0.8 µg/mL. It also gave an EC50 for in vitro neutralization [11] of 15 µg/mL, an IC50, MDCK monolayer microneutralization assay [11] of 15.5 µg/mL and a Potency Difference (MAB579 against CR8020) [11] of 3 x. For the same molecule, the IC50, MDCK monolayer microneutralization assay [12] was 1.9 µg/mL, the IC50, MDCK monolayer microneutralization assay [13] was greater than 20 µg/mL and the EC50 for in vitro neutralization [14] was 1 µg/mL. The IC50, MDCK monolayer microneutralization assay [14] was 1 µg/mL, the Potency Difference (MAB579 against CR8020) [14] was 3 x and the EC50 for in vitro neutralization [15] was 0.05 µg/mL. It also gave an IC50, MDCK monolayer microneutralization assay [15] of 0.2 µg/mL, a Potency Difference (MAB579 against CR8020) [15] of 40 x and an IC50, MDCK monolayer microneutralization assay [16] of 0.9 µg/mL. The EC50 for in vitro neutralization [17] was 2 µg/mL, the IC50, MDCK monolayer microneutralization assay [17] was 2.8 µg/mL and the Potency Difference (MAB579 against CR8020) [17] was 3 x. The EC50 for in vitro neutralization [18] was 0.7 µg/mL, the IC50, MDCK monolayer microneutralization assay [18] was 0.6 µg/mL and the Potency Difference (MAB579 against CR8020) [18] was 20 x. For the same molecule, the IC50, MDCK monolayer microneutralization assay [19] was greater than 20 µg/mL, the EC50 for in vitro neutralization [20] was 2 µg/mL and the IC50, MDCK monolayer microneutralization assay [20] was 1.1 µg/mL. The Potency Difference (MAB579 against CR8020) [20] was 5 x, the IC50, MDCK monolayer microneutralization assay [21] was greater than 20 µg/mL and the EC50 for in vitro neutralization [22] was 0.5 µg/mL. It also gave an IC50, MDCK monolayer microneutralization assay [22] of 1.6 µg/mL, a Kd [23] of 0.8 nM and a Kd [24] of 0.2 nM. It also gave a Kd [25] of 0.4 nM, a Kd [26] of 0.2 nM and a Kd [27] of 0.6 nM. The Kd [28] was 0.7 nM, the Kd [29] was 0.2 nM and the Kd [30] was 0.4 nM.

B2: MAB8 (antibody, V domains shown)
VH: EVQLVESGGGLVKPGGSLRLSCAASGFTFSTYTMSWVRQAPGQGLEWVSSITRTSSNIYYADSVEGRFTISRDNAKNSLYLQMHSLRVEDTAVYYCARISGVVGPVPFDYWGQGTLITVSS
VL: DIQMTQSPSSLSASVGDRVTITCRASQTISKYLNWYQQKPGRAPKLLIYSASSLQSGVPSRFTGSGSGTDFTLTITSLQPEDFATYYCQQSYRPSQITFGPGTKVDIK
In the case of B2, the Kd [31] is reported as 9 nM, the Kd [32] is reported as 0.2 nM and the Kd [33] is reported as 16 nM.

B3: MAB53 (antibody, V domains shown)
VH: QVQLVQSGAEVRKPGSSVKVSCKVSGGIIRKYAINWVRQAPGQGLEWMGGIIAIFNTANYAQKFQGRVTITADESTSTVYMELSSLRSEDTALYYCARGMNYYSDYFDYWGQGSLVTVSP
VL: EIVLTQSPGTLSLSPGERATLSCRASQSVRSNNLAWYQHKPGQAPRLLIFGASSRATGIPDRFSGSGSGTDFTLTISRLEPEDFAVYYCQQYGSSPALTFGGGTKVEIK
Work on B3 yielded an EC50 for in vitro neutralization [34] of 0.1 µg/mL, an EC50 for in vitro neutralization [35] of 0.14 µg/mL and a Potency Difference (MAB53 against CR6261) [35] of 30 x. The EC50 for in vitro neutralization [36] was 1.2 µg/mL, the EC50 for in vitro neutralization [37] was 0.1 µg/mL and the Potency Difference (MAB53 against CR6261) [37] was 40 x. It also gave a Kd [38] of 0.1 nM, a Kd [39] of 0.5 nM and a Kd [40] of 0.5 nM. The Kd [41] was 0.2 nM, the Kd [31] was 0.06 nM and the Kd [32] was 6 nM. The Kd [42] was 0.07 nM and the Kd [43] was 0.03 nM.

Reference: US20140322210A1
